Source: the supplement of paper PMC9170038

Test system: MS2 coat protein
Test: apparent KD of MS2 coat protein; designed switch direction (-1 OFF switch, 1 ON switch): 1; higher = weaker reporter binding
Outline: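 Stalled E. coli RNA polymerase transcribed designed RNA switches on Illumina chips, which were then titrated with SNAP-549-labelled MS2 coat protein, doubling from 0.7 or 1.5 nM to 3 µM. Steps lasted from 0.8–1.5 h at the lowest concentration to 10–20 min at the highest. The apparent KD is each design's median over clusters of curve-fitted normalised fluorescence.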

[1] = input ligand: microRNA oligo, concentration not stated
[2] = Eterna round: R95, input ligand: FMN 200 uM
[3] = Eterna round: R95, input ligand: microRNA oligo, concentration not stated
[4] = Eterna round: R95, input ligand: none

Row | Sequence | apparent KD of MS2 coat protein (input ligand: FMN 200 uM) | apparent KD of MS2 coat protein [1] | apparent KD of MS2 coat protein (input ligand: none) | apparent KD of MS2 coat protein [2] | apparent KD of MS2 coat protein [3] | apparent KD of MS2 coat protein [4]
1 | GGCCUCUGUCAAGGAUAUGCUACCGUUUCGGUAGCAGAAGGUGAUCACAUGCGGUUCGCCCAUGUUUAGGCCAACAGGCCCGCC (Eterna round: R96, puzzle: Same State NG 1) | 25.1 nM | 5.14 nM | 6.87 nM |  |  | 
2 | UAAAUAAAGUAAGGAUAUACAUGAGGAUUUCUCGUAGAAGGUACAAGACAUGAGGAUCACCCAUGUAUCGCUCGAAAGAGCGUA [Mat - Same State NG 1 - JL mod - D22] (Eterna round: R96, puzzle: Same State NG 1) | 126 nM | 67.5 nM | 208 nM |  |  | 
3 | GUCCGGCUGCCACAGGAUAUACGUGGAUCGACAUGAGGAUCACCCAUGUAUAUCCUAAUAAUUGCGUAGAAGGGUGGUCAGCCGG [Dionbe] (Eterna round: R96, puzzle: Same State 2) |  | 507 nM |  |  |  | 
4 | GGUCCGGCCUGAGCUGGACCGGAGCAUGUACAUGAGGAUCACCCAUGUCAUGUACAGGCUUCUUGCUCGUCUUGUUG [JL-shm-2.16 JL Mod] (puzzle: Sensor for hsa-mir-208a) |  |  |  | 314 nM | 15 nM | 421 nM
5 | GUGGUCAGACAUGAGGAUCACCCAUGUGGAAUAAAUAACAGACAGGAUAUGUAAUAUAAAAUAUAACAGAAGGGUCGAUUGGUG (Eterna round: R96, puzzle: Same State NG 3) | 79.6 nM | 64.7 nM | 93.9 nM |  |  | 
6 | UUUAGUUGCGGGCAGGAUAUGUGUUAAAAUACAUGAGGAUCACCCAUGUGCGGGUAUAACACCCGACAGAAGGGCCAAUCGCGAC [Laonerce - 2] (puzzle: Same State 2) |  |  |  | 21.8 nM | 56.4 nM | 67.9 nM
7 | GAGGGACAGACCAACAUGAGGAUCACCCAUGUCCUCGCAGGUCAGGAUAUUAUGAGGAUCACCCAUGAGAAGGGACGGUGAACC (Eterna round: R96, puzzle: Same State NG 3) | 587 nM | 340 nM | 491 nM |  |  | 
8 | AGAUCAUGACGAGGAUAUGGUACAUGAGGAUCACCCAUGUAUGUACUAUAACCCGAAUGAGGAAUCCAGAAGGCGUCGUGGUCA [JL SSNG2 1.13] (Eterna round: R96, puzzle: Same State NG 2) | 24.4 nM | 56.3 nM | 93 nM |  |  | 
9 | GCUAGGAUAUGACGAGGAUCACCCGUUAGAAGGAGCGAAGGCUAGGAUAUGACGAGGAUCACCCGUUAGAAGGAGCUGUACUCU [pwkr ssNG3 DX 2xF5 +2xFMN.10] (Eterna round: R96, puzzle: Same State NG 3) | 188 nM | 64.9 nM | 80.3 nM |  |  | 
10 | UGCCAUUGUAUAUUGGUGCAAGCUUUUUGACAUGAGGAUCACCCAUGUACUCGUCUUAUGUGCAGUCCGUAGACUGC [JL-shm-2.23 Brourd mod] (puzzle: Sensor for hsa-mir-208a) |  |  |  | 24 nM | 13.5 nM | 22.8 nM
11 | CGGGUACAUGAGGAUCACCCAUGUUGGAGUAAUGCAGGAUAUGUGAGACGAGAUGAUAAAACAGAAGGGCAAGGAG [JR_SS!_Sub010] (puzzle: Same State 1) |  |  |  | 50.2 nM | 70.5 nM | 123 nM
12 | GCGAGCGUACUUGCUACAUGAGGAUCACCCAUGUUUACUGGACAGGAUAUGGUACCGUUUCGGUACCAGAAGGGUUCAUCAUGU [JL SSNG3 3.69] (Eterna round: R96, puzzle: Same State NG 3) | 278 nM | 248 nM | 597 nM |  |  | 
